Literature values in article PMC6197867.

Key:
[1] = molecular target: LEN light chain variable domain VL (Homo sapiens) (UniProt P06312)
[2] = molecular target: SMA light chain variable domain VL (Homo sapiens) (UniProt P06312)

| Substance | Kd [1] [µM] | Kd [2] [µM] |
| --- | --- | --- |
| LEN light chain variable domain VL (from UniProt P06312) | 10 |  |
| SMA light chain variable domain VL (from UniProt P06312) |  | 40 |
